Source: publication PMC11185801 (bioRxiv, 2024)
Substitutions are numbered along the chain they refer to. Numbers in names are those of the source.

Biological target: the molecule itself
Assay: cryo-EM structure

B1: human Kir7.1 R162Q mutant (natural protein)
chain: MDSSNCKVIAPLLSQRYRRMVTKDGHSTLQMDGAQRGLAYLRDAWGILMDMRWRWMMLVFSASFVVHWLVFAVLWYVLAEMNGDLELDHDAPPENHTICVKYITSFTAAFSFSLETQLTIGYGTMFPSGDCPSAIALLAIQMLLGLMLEAFITGAFVAKIAQPKNRAFSIRFTDTAVVAHMDGKPNLIFQVANTRPSPLTSVRVSAVLYQERENGKLYQTSVDFHLDGISSDECPFFIFPLTYYHSITPSSPLATLLQHENPSHFELVVFLSAMQEGTGEICQRRTSYLPSEIMLHHCFASLLTRGSKGEYQIKMENFDKTVPEFPTPLVSKSPNRTDLDIHINGQSIDNFQISETGLTE
Q: B1 was tested. Which “stoichiometry N” value did it give?
A: 4

B2: human Kir7.1 E276A mutant (natural protein)
chain: B1 chain with Q162R, E276A
Q: B2 was tested. Which “stoichiometry N” value did it give?
A: 4
